{"source": "patent US20170305975A1", "about": "(PROCLARA BIOSCIENCES, published 2017)", "binders": {"B1": {"name": "rs-g3p(N1N2)-hIgG4-Fc fusion protein (Construct 4) (Fc fusion)", "chain": "MAETVESCLAKPHTENSFTNVWKDDKTLDRYANYEGCLWNATGVVVCTGDETQCYGTWVPIGLAIPENEGGGSEGGGSEGGGSEGGGTKPPEYGDTPIPGYTYINPLDGTYPPGTEQNPANPNPSLEESQPLNTFMFQNNRFRNRQGALTVYTGTVTQGTDPVKTYYQYTPVSSKAMYDAYWNGKFRDCAFHSGFNEDPFVCEYQGQSSDLPQPPVNAGGGSGGGSGGGSEGGGSEGGGSEGGGSEGGGSGGGSGSGAMVRSPPCPSCPAPEFLGGPSVFLFPPKPKDTLMISRTPEVTCVVVDVSQEDPEVQFNWYVDGVEVHNAKTKPREEQFNSTYRVVSVLTVLHQDWLNGKEYKCKVSNKGLPSSIEKTISKAKGQPREPQVYTLPPSQEEMTKNQVSLTCLVKGFYPSDIAVEWESNGQPENNYKTTPPVLDSDGSFFLYSRLTVDKSRWQEGNVFSCSVMHEALHNHYTQKSLSLSPGK", "notes": "also called rs-g3p(N1N2)-Ig fusion; bivalent rs-g3p(N1N2)-Ig fusion"}, "B2": {"name": "rs-g3p(N1N2)-hIgG4-Fc fusion protein (Construct 5) (Fc fusion)", "chain": "MAETVESCLAKPHTENSFTNVWKDDKTLDRYANYEGCLWNATGVVVCTGDETQCYGTWVPIGLAIPENEGGGSEGGGSEGGGSEGGGTKPPEYGDTPIPGYTYINPLDGTYPPGTEQNPANPNPSLEESQPLNTFMFQNNRFRNRQGALTVYTGTFTQGTDPVKTYYQYTPVSSKAMYDAYWNGKFRDCAFHSGFNEDPFVCEYQGQSSDLPQPPVNAGGGSGGGSGGGSEGGGSEGGGSEGGGSEGGGSGGGSGSGAMVRSPPCPSCPAPEFLGGPSVFLFPPKPKDTLMISRTPEVTCVVVDVSQEDPEVQFNWYVDGVEVHNAKTKPREEQFNSTYRVVSVLTVLHQDWLNGKEYKCKVSNKGLPSSIEKTISKAKGQPREPQVYTLPPSQEEMTKNQVSLTCLVKGFYPSDIAVEWESNGQPENNYKTTPPVLDSDGSFFLYSRLTVDKSRWQEGNVFSCSVMHEALHNHYTQKSLSLSPGK"}, "B3": {"name": "If1N1N2 g3p (without Fc domain) (other)", "chain": "ATTDAECLSKPAFDGTLSNVWKEGDSRYANFENCIYELSGIGIGYDNDTSWNGHWTPVRAADGSGNGGDDNSSGGGSNGDSGNNSTPDTVTPGQTVNLPSDLSTLSIPANVVKSDSIGSQFSLYTNASCTMCSGYYLSNNADSIAIANITETVKADYNQPDMWFEQTDSDGNHVKILQNSYKAVSYNVESKQSDVNNPTYINYSYSVNVKQVSYDTSNVCIMNWETFQNKCDASRAVLITDTVTPSYSRNITIQSNINYQGSNGSGGSGGSGGSG"}, "B4": {"name": "recombinant soluble N1N2 fragment of g3p, rs-g3p(N1N2) (Construct 3) (other)", "chain": "MAETVESCLAKSHTENSFTNVWKDDKTLDRYANYEGCLWNATGVVVCTGDETQCYGTWVPIGLAIPENEGGGSEGGGSEGGGSEGGGTKPPEYGDTPIPGYTYINPLDGTYPPGTEQNPANPNPSLEESQPLNTFMFQNNRFRNRQGALTVYTGTVTQGTDPVKTYYQYTPVSSKAMYDAYWNGKFRDCAFHSGFNEDLFVCEYQGQSSDLPQPPVNAPSGHHHHHH", "notes": "also called monomer; monomeric g3p"}, "B5": {"name": "phage fd (wild type) (other)", "chain": "AETVESCLAKPHTENSFTNVWKDDKTLDRYANYEGCLWNATGVVVCTGDETQCYGTWVPIGLAIPENEGGGSEGGGSEGGGSEGGGTKPPEYGDTPIPGYTYINPLDGTYPPGTEQNPANPNPSLEESQPLNTFMFQNNRFRNRQGALTVYTGTVTQGTDPVKTYYQYTPVSSKAMYDAYWNGKFRDCAFHSGFNEDPFVCEYQGQSSDLPQPPVNAGGGSGGGSGGGSEGGGSEGGGSEGGGSEGGGSGGGSGSGDFDYEKMANANKGAMTENADENALQSDAKGKLDSVATDYGAAIDGFIGDVSGLANGNGATGDFAGSNSQMAQVGDGDNSPLMNNFRQYLPSLPQSVECRPYVFGAGKPYEFSIDCDKINLFRGVFAFLLYVATFMYVFSTFANILRNKES"}, "B6": {"name": "M13 phage (construct not stated) (other)", "chain": "AETVESCLAKPHTENSFTNVWKDDKTLDRYANYEGCLWNATGVVVCTGDETQCYGTWVPIGLAIPENEGGGSEGGGSEGGGSEGGGTKPPEYGDTPIPGYTYINPLDGTYPPGTEQNPANPNPSLEESQPLNTFMFQNNRFRNRQGALTVYTGTVTQGTDPVKTYYQYTPVSSKAMYDAYWNGKFRDCAFHSGFNEDPFVCEYQGQSSDLPQPPVNAGGGSGGGSGGGSEGGGSEGGGSEGGGSEGGGSGGGSGSGDFDYEKMANANKGAMTENADENALQSDAKGKLDSVATDYGAAIDGFIGDVSGLANGNGATGDFAGSNSQMAQVGDGDNSPLMNNFRQYLPSLPQSVECRPFVFSAGKPYEFSIDCDKINLFRGVFAFLLYVATFMYVFSTFANILRNKES", "notes": "also called wild type M13; labeled M13"}, "B7": {"name": "M13 phage (Construct 1) (other)", "chain": "AETVESCLAKPHTENSFTNVWKDDKTLDRYANYEGCLWNATGVVVCTGDETQCYGTWVPIGLAIPENEGGGSEGGGSEGGGSEGGGTKPPEYGDTPIPGYTYINPLDGTYPPGTEQNPANPNPSLEESQPLNTFMFQNNRFRNRQGALTVYTGTVTQGTDPVKTYYQYTPVSSKAMYDAYWNGKFRDCAFHSGFNEDPFVCEYQGQSSDLPQPPVNAGGGSGGGSGGGSEGGGSEGGGSEGGGSEGGGSGGGSGSGDFDYEKMANANKGAMTENADENALQSDAKGKLDSVATDYGAAIDGFIGDVSGLANGNGATGDFAGSNSQMAQVGDGDNSPLMNNFRQYLPSLPQSVECRPFVFGAGKPYEFSIDCDKINLFRGVFAFLLYVATFMYVFSTFANILRNKES"}}, "key": {"[1]": {"molecular_target": "T1, amyloid-β 1-42 fibers (fAβ42) (human, UniProt P05067 672-713)", "T1 construct": "domain: amyloid-β 1-42; also called Aβ fibrils; Aβ fibers", "T1 sequence (P05067 672-713 limits assumed)": "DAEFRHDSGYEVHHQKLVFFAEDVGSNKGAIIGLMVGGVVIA", "assay": "SPR on Aβ fibrils, 25° C."}, "tau fibers (ftau)": {"molecular_target": "tau fibers (ftau)", "assay": "SPR, Construct 4 on ftau"}, "[2]": {"molecular_target": "T1, amyloid-β 1-42 fibers (fAβ42)", "assay": "competition with M13-Alexa488 for fAβ, fiber sedimentation assay"}, "[3]": {"molecular_target": "T1, amyloid-β 1-42 fibers (fAβ42)", "assay": "cell-based or functional assay"}, "[4]": {"molecular_target": "T1, amyloid-β 1-42 fibers (fAβ42)", "assay": "SPR, 4 µM rs-g3p(N1N2) on Aβ fibrils"}, "[5]": {"molecular_target": "T1, amyloid-β 1-42 fibers (fAβ42)", "assay": "SPR on Aβ fibrils, analyte preheated at 37° C."}, "[6]": {"molecular_target": "T1, amyloid-β 1-42 fibers (fAβ42)", "assay": "SPR, Aβ42 fibers immobilized on a CM3 surface, about 2 µM analyte at 5 µl/min"}, "[7]": {"molecular_target": "T1, amyloid-β 1-42 fibers (fAβ42)", "assay": "competition with labeled M13 for binding to Aβ, 45 minutes at 37 °C; phage with or without pre-activation at 50 °C for 1.5 hours"}, "[8]": {"molecular_target": "T1, amyloid-β 1-42 fibers (fAβ42)", "assay": "SPR, calculated from the data of FIG. 3A"}, "[9]": {"molecular_target": "T1, amyloid-β 1-42 fibers (fAβ42)"}, "[10]": {"molecular_target": "T1, amyloid-β 1-42 fibers (fAβ42)", "assay": "SPR on Aβ fibrils"}, "[11]": {"molecular_target": "T1, amyloid-β 1-42 fibers (fAβ42)", "assay": "SPR, 10^14 phage/mL over immobilized fAβ"}}, "note": "Like-named read-outs stand apart in the source and are kept apart here."}
{"binder": "B1", "values": [{"measurement": "Kd", "setting": "[1]", "result": 7.32, "unit": "nM"}, {"measurement": "koff", "setting": "[1]", "result": 0.000128, "unit": "s⁻¹"}, {"measurement": "kon", "setting": "[1]", "result": 17500, "unit": "M⁻¹ s⁻¹"}, {"measurement": "Kd", "setting": "tau fibers (ftau)", "result": 62.9, "unit": "nM"}]}
{"binder": "B2", "values": [{"measurement": "Kd", "setting": "[1]", "result": 10.9, "unit": "nM"}, {"measurement": "koff", "setting": "[1]", "result": 0.000166, "unit": "s⁻¹"}, {"measurement": "kon", "setting": "[1]", "result": 15200, "unit": "M⁻¹ s⁻¹"}]}
{"binder": "B3", "values": [{"measurement": "fold better binding than M13 N1N2 g3p", "setting": "[2]", "result": "~4", "unit": "fold"}]}
{"binder": "B4", "values": [{"measurement": "IC50 of inhibition of Aβ42 fiber formation, ThT fluorescence (10 µM Aβ42 monomers, 37° C., 3 days)", "setting": "[3]", "result": "~20", "unit": "nM"}, {"measurement": "Kd", "setting": "[1]", "result": 150, "unit": "nM"}, {"measurement": "koff", "setting": "[1]", "result": 0.00024, "unit": "s⁻¹"}, {"measurement": "kon", "setting": "[1]", "result": 1500, "unit": "M⁻¹ s⁻¹"}, {"measurement": "Kd", "setting": "[4]", "result": "~160", "unit": "nM"}, {"measurement": "Kd", "setting": "[5]", "result": 50, "unit": "nM"}, {"measurement": "koff", "setting": "[5]", "result": 0.0002, "unit": "s⁻¹"}, {"measurement": "kon", "setting": "[5]", "result": 4100, "unit": "M⁻¹ s⁻¹"}, {"measurement": "Kd", "setting": "[6]", "result": "~150", "unit": "nM"}]}
{"binder": "B5", "values": [{"measurement": "binding result", "setting": "[7]", "result": "binds"}]}
{"binder": "B6", "values": [{"measurement": "Kd", "setting": "[8]", "result": 3.59, "unit": "nM"}]}
{"binder": "B7", "values": [{"measurement": "Kd", "setting": "[9]", "result": "~7", "unit": "nM"}, {"measurement": "Kd", "setting": "[10]", "result": 3.59, "unit": "nM"}, {"measurement": "koff", "setting": "[10]", "result": "9.2e-06", "unit": "s⁻¹"}, {"measurement": "kon", "setting": "[10]", "result": 2600, "unit": "M⁻¹ s⁻¹"}, {"measurement": "Kd", "setting": "[11]", "result": "~4", "unit": "nM"}]}
